Residue numbers refer to the chain shown, from its start. Names may count otherwise.
B1: CdgS (All2874) (Nostoc sp. PCC 7120 = FACHB-418) (protein)
chain: MKNTVPESQCLILIVDDEPFIRAQLRLSLQCEGYRTAEAEDGRQALAIFQELQPDIVLLDAIMPDLDGFECCTRLQLLEDGKYTPVLMITGLEDQESVDRAFEVGAIDYVTKPIHWPVLRQRVKRLIQQFHLQQKLEAANRELQRLVTIDELTQVANRRRFEEYCAQEWQRMARDQLPLSLILCDVDFFKAYNDTYGHRAGDRCLQLVAKAIESCVNRPADVVARYGGEEFAVILPRTYPDGAIHLANAICTAVRELQITHLTSQANTCVTISAGVATEIPVPNSDFQEIINAADRALYQAKMTGRDGCQQYIKQSSSPVYFLNAHHRLA
notes: REC-GGDEF response regulator; recombinant from E. coli BL21(DE3), pHTwinStrep vector (two tandem C-terminal Strep-tags)
B2: CdgS (All2874) (Nostoc sp. PCC 7120 = FACHB-418; D60A) (protein)
chain: B1 chain with D60A
notes: as for B1

Experiments:
[1] = substrate: Nc1nc2c(ncn2[C@@H]2O[C@H](COP(=O)(O)OP(=O)(O)OP(=O)(O)O)[C@@H](O)[C@H]2O)c(=O)[nH]1; assay: diguanylate cyclase assay, Michaelis-Menten and Lineweaver-Burk; type: biochemical, Nostoc sp. PCC 7120 = FACHB-418; conditions: c-di-GMP synthesis; GTP varied
Excerpt: diguanylate cyclase assay, Michaelis-Menten and Lineweaver-Burk on CdgS (All2874) | kinetic curves for c-di-GMP synthesis of CdgS and CdgS^D60A followed Michaelis–Menten kinetics

[2] = substrate: Nc1nc2c(ncn2[C@@H]2O[C@H](COP(=O)(O)OP(=O)(O)OP(=O)(O)O)[C@@H](O)[C@H]2O)c(=O)[nH]1; assay: as above; type: biochemical, Nostoc sp. PCC 7120 = FACHB-418; conditions: c-di-GMP synthesis; GTP varied; remark: listed apart in the source
Excerpt: diguanylate cyclase assay, Michaelis-Menten and Lineweaver-Burk on CdgS (All2874) | CdgS^D60A could still synthesize c-di-GMP using GTP as the substrate

| Protein | Km [1] | kcat [1] | Km [2] | kcat [2] |
| --- | --- | --- | --- | --- |
| B1 | 5.84 µM | 73.68 s⁻¹ |  |  |
| B2 |  |  | 6.33 µM | 60.53 s⁻¹ |
